For this data set, the target named is T1, OgeuIscB ΔHNH (human gut metagenome (OgeuIscB), UniProt PDB:7XHT_4 1-198+=GGSG+296-496, internal_change).
T1 sequence: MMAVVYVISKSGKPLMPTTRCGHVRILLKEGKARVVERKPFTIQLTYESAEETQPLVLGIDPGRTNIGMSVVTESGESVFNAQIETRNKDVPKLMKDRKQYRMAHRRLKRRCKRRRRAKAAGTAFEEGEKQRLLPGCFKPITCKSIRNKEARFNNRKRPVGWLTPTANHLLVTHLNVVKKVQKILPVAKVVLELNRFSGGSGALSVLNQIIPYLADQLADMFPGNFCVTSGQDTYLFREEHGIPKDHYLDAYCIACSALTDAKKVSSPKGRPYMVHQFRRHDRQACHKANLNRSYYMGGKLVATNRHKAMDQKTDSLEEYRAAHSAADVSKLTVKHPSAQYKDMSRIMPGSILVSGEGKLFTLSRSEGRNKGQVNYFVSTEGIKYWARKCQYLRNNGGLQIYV
Kind of data set: cryo-EM (2.6 Å); Mg2+ bound in RuvC site; Purification: 20 mM Tris-HCl pH 8.0, NaCl gradient 0.075-2 M (heparin), 10% glycerol, 5 mM MgCl2, 2 mM DTT; cryo-EM sample buffer not in the material. Conditions: protein: recombinant; strand 1 ωRNA, strand 2 TS, strand 3 NTS; NTS pairs with TS nt 1-14; ωRNA guide nt 1-27 complementary to TS nt 15-41 (17 bp resolved); TS 3' tail 8 nt.

B1: ωRNA (233 nt) + partially double-stranded target DNA (TS 49 nt, NTS 14 nt) (mixed)
RNA: GGAAUUGUGAGCGGAUAACAAUUCCCCGGCUCUUCCAACUUUAUGGUUGCGACCGUAGGUUGAAAGAGCACAGGCUGAGACAUUCGUAAGGCCGAAAGACCGGACGCACCCUGGGAUUUCCCCAGUCCCCGGAACUGCAUAGCGGAUGCCAGUUGAUGGAGCAAUCUAUCAGAUAAGCCAGGGGGAACAAUCACCUCUCUGUAUCAGAGAGAGUUUUACAAAAGGAGGAACGG
DNA 1: GAATGGTTTTCTTCGGGGAATTGTTATCCGCTCACAATTCCTTAGAAAA
DNA 2: GAAGAAAACCATTC
B1: the binding result was “binds”.

These data come from publication PMC9640706, “Structure of the IscB–ωRNA ribonucleoprotein complex, the likely ancestor of CRISPR-Cas9”.
